# Numbering of substitutions follows the chain as printed. In names and notes the source's numbering stands. Several values for one entry are separate records, joined by “and”; a condition that tells them apart may be missing. Identical values can stand only once.
# B1: anti-NGF feline IgG1a, Fc variant S428Y, L309V, T286E (antibody, part only; not given: anti-NGF variable domains, not shown: another chain or arm of the molecule; small tags and cut ends)
# Fc: PPEMLGGPSIFIFPPKPKDTLSISRTPEVTCLVVDLGPDDSDVQITWFVDNTQVYEAKTSPREEQFNSTYRVVSVLPIVHQDWLKGKEFKCKVNSKSLPSPIERTISKAKGQPHEPQVYVLPPAQEELSRNKVSVTCLIKSFHPPDIAVEWEITGQPEPENNYRTTPPQLDSDGTYFVYSKLSVDRSHWQRGNTYTCSVYHEALHSHHTQKSLTQSPGK
# B2: anti-NGF feline IgG1a, Fc variant S434Y, S426L (antibody, part only; not given: anti-NGF variable domains, light chain, not shown: another chain or arm of the molecule; small tags and cut ends)
# Fc: B1 Fc with E56T, V79L, S198L, Y200S, S206Y
# B3: anti-NGF feline IgG1a, Fc variant T286E, S428R (antibody, part only; not given: anti-NGF variable domains, not shown: another chain or arm of the molecule; small tags and cut ends)
# Fc: B1 Fc with V79L, Y200R
# B4: anti-NGF feline IgG1a, Fc variant S252Y, Q311K (antibody, part only; not given: anti-NGF variable domains, light chain, not shown: another chain or arm of the molecule; small tags and cut ends)
# Fc: B1 Fc with S22Y, E56T, V79L, Q81K, Y200S
# B5: anti-NGF feline IgG1a, Fc variant S252Y, Q311V (antibody, part only; not given: anti-NGF variable domains, light chain, not shown: another chain or arm of the molecule; small tags and cut ends)
# Fc: B1 Fc with S22Y, E56T, V79L, Q81V, Y200S
# B6: anti-NGF feline IgG1a, Fc variant S428Y (antibody, part only; not given: anti-NGF variable domains, not shown: another chain or arm of the molecule; small tags and cut ends)
# Fc: B1 Fc with E56T, V79L
# B7: anti-NGF feline IgG1a, Fc variant S428Y, Q311V (antibody, part only; not given: Anti-NGF variable domains, not shown: another chain or arm of the molecule; small tags and cut ends)
# Fc: B1 Fc with E56T, V79L, Q81V
# B8: anti-NGF feline IgG1a, Fc variant S428Y, L309V (antibody, part only; not given: Anti-NGF variable domains, not shown: another chain or arm of the molecule; small tags and cut ends)
# Fc: B1 Fc with E56T
# B9: anti-NGF feline IgG1a, Fc variant S252W (antibody, part only; not given: anti-NGF variable domains, light chain, not shown: another chain or arm of the molecule; small tags and cut ends)
# Fc: B1 Fc with S22W, E56T, V79L, Y200S
# B10: anti-NGF feline IgG1a, Fc variant S428Y, Q311V, T286E (antibody, part only; not given: anti-NGF variable domains, light chain, not shown: another chain or arm of the molecule; small tags and cut ends)
# Fc: B1 Fc with V79L, Q81V
# B11: anti-NGF feline IgG1a, Fc variant S428Y, Q311V, E380T (antibody, part only; not given: anti-NGF variable domains, not shown: another chain or arm of the molecule; small tags and cut ends)
# Fc: B1 Fc with E56T, V79L, Q81V, E150T
# B12: anti-NGF feline IgG1a, Fc variant S428Y, L309V, E380T (antibody, part only; not given: anti-NGF variable domains, light chain, not shown: another chain or arm of the molecule; small tags and cut ends)
# Fc: B1 Fc with E56T, E150T
# B13: feline IgG1a Fc variant S428M (CH2-CH3) with SASA tag (Fc fusion, part only; not given: SASA tag, not shown: another chain or arm of the molecule; small tags and cut ends)
# Fc: B1 Fc with E56T, V79L, Y200M
# B14: feline IgG1a Fc variant S428Y (CH2-CH3) with SASA tag (Fc fusion, part only; not given: SASA tag, not shown: another chain or arm of the molecule; small tags and cut ends)
# Fc: B1 Fc with E56T, V79L
# B15: feline IgG1a Fc variant S434F (CH2-CH3) with SASA tag (Fc fusion, part only; not given: SASA tag, not shown: another chain or arm of the molecule; small tags and cut ends)
# Fc: B1 Fc with E56T, V79L, Y200S, S206F
# B16: feline IgG1a Fc variant S434W (CH2-CH3) with SASA tag (Fc fusion, part only; not given: SASA tag, not shown: another chain or arm of the molecule; small tags and cut ends)
# Fc: B1 Fc with E56T, V79L, Y200S, S206W
# B17: feline IgG1a Fc variant S434H (CH2-CH3) with SASA tag (Fc fusion, part only; not given: SASA tag, not shown: another chain or arm of the molecule; small tags and cut ends)
# Fc: B1 Fc with E56T, V79L, Y200S, S206H
# B18: wild-type feline IgG1a Fc (CH2 and CH3 domains) with SASA tag (Fc fusion, part only; not given: SASA tag, not shown: another chain or arm of the molecule; small tags and cut ends)
# Fc: B1 Fc with E56T, V79L, Y200S
# Target: feline FcRn (IgG receptor FcRn large subunit p51 with feline beta-2-microglobulin) (feline)
# Test: SPR Biacore 8K+, IgG on C1 chip, pH 5.9, kinetic fit (printed 1:4)
row,Binder,Kd [nM]
1,B1,5.26

# Target: feline FcRn (FCN-F82W3, Acrobiosystems) (feline)
# Test: SPR Carterra, IgG coupled, pH 7.4
Binder,Kd [nM],koff [s⁻¹],kon [M⁻¹ s⁻¹]
B2,185,0.118,636000
B3,12.3,0.113,9.17e+06
B4,46.9,0.112,2.39e+06
B5,306,0.0528,173000

# Target: feline FcRn (FCN-F82W3, Acrobiosystems) (feline)
# Test: SPR Carterra, IgG coupled, pH 6.0
Binder,Kd [nM],koff [s⁻¹],kon [M⁻¹ s⁻¹]
B2,3,0.0044,1.48e+06
B3,6.9,0.00648,939000
B6,25.6,0.0184,718000
B7,10.9,0.00977,893000
B8,13.2,0.0112,847000
B4,5.6,0.00779,1.39e+06
B5,3.8,0.00405,1.06e+06

# Target: feline FcRn (IgG receptor FcRn large subunit p51 with feline beta-2-microglobulin) (feline)
# Test: SPR Biacore 8K+, IgG on C1 chip, pH 5.9, 1:1 kinetic fit
row,Binder,Kd [nM]
1,B6,71.8
2,B7,32.2
3,B8,35.3
4,B9,4.01
5,B10,6.11
6,B11,20.1
7,B12,20.6

# Target: feline FcRn (IgG receptor FcRn large subunit p51 with feline beta-2-microglobulin) (feline)
# Test: SPR Biacore 8K, Fc captured by SASA tag on BSA, pH 6.0
Binder,Kd,koff,kon
B13,603 nM,0.1 s⁻¹,166000 M⁻¹ s⁻¹
B14,528 nM and 565 nM,0.103 s⁻¹ and 0.105 s⁻¹,195000 M⁻¹ s⁻¹ and 187000 M⁻¹ s⁻¹
B15,41.7 nM and 43.3 nM,0.0158 s⁻¹ and 0.0161 s⁻¹,378000 M⁻¹ s⁻¹ and 371000 M⁻¹ s⁻¹
B16,55.6 nM and 50.2 nM,0.0175 s⁻¹ and 0.0202 s⁻¹,314000 M⁻¹ s⁻¹ and 402000 M⁻¹ s⁻¹
B17,316 nM and 444 nM,0.0761 s⁻¹ and 0.0888 s⁻¹,241000 M⁻¹ s⁻¹ and 200000 M⁻¹ s⁻¹
B18,1190 nM and 1640 nM,0.374 s⁻¹ and 0.195 s⁻¹,314000 M⁻¹ s⁻¹ and 119000 M⁻¹ s⁻¹

# From patent publication US20250304650A1
